Values quoted from earlier work, collected in article PMC3981547.
Read-outs that look alike come from different tables or passages of the source. Values belong to the substance of their own block, whether it stands above or below them.

Assays:
[1] = biological target: IL-2Rβ (Homo sapiens) (UniProt P14784)
[2] = biological target: γc (Homo sapiens) (UniProt P31785)
[3] = biological target: IL-2Rβ/γc (Homo sapiens) (UniProt P14784)
[4] = biological target: IL-2Rα (Homo sapiens) (UniProt P01589)
[5] = biological target: IL-4Rα ECD (Homo sapiens) (UniProt P24394); assay: ITC
[6] = biological target: IL-13Rα1 (Homo sapiens) (UniProt P78552)
[7] = biological target: IL-13Rα1 (Homo sapiens) (UniProt P78552); remark: listed apart in the source

Chain of UniProt P78552 (P78552 22-343): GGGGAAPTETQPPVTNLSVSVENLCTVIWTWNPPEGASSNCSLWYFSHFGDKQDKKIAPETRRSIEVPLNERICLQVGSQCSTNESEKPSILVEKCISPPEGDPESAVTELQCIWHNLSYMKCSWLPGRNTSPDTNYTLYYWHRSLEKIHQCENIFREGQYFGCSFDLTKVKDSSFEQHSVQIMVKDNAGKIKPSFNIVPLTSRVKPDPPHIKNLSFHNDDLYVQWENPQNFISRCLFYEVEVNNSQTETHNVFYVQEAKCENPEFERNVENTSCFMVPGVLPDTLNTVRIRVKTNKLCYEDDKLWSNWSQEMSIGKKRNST
Chain of UniProt P24394 (P24394 26-232): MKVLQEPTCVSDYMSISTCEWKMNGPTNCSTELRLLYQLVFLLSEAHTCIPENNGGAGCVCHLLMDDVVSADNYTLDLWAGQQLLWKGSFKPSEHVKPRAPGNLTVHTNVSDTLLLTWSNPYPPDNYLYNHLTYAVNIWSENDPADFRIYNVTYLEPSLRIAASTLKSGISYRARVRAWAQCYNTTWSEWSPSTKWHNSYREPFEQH
Chain of UniProt P01589 (P01589 22-240): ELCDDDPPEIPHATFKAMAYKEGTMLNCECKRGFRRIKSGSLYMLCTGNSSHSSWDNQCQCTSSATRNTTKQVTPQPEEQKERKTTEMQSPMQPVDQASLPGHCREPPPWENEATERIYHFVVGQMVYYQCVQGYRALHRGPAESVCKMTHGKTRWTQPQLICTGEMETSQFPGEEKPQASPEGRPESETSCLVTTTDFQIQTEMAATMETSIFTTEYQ
Chain of UniProt P31785 (P31785 23-262): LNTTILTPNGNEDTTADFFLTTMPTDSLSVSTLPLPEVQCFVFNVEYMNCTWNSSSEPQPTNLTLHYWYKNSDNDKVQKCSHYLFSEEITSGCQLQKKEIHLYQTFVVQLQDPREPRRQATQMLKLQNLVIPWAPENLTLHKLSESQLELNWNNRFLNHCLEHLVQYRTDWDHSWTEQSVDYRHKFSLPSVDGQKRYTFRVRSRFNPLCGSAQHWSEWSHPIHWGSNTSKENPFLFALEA

Kd [1]: 100 nM
Kd [2]: 700000 nM
Kd [3]: 1 nM
Kd [4]: 10 nM
Substance: IL-2 (from UniProt P60568)

Kd [5]: 1 nM
Substance: IL-4 (from UniProt P05112)

Kd [6]: 30 nM
Substance: IL-13 (from UniProt P35225)

Kd [7]: 487 nM
Substance: IL-4/IL-4Rα (from UniProt P05112)
